According to patent US9109032:

Biological target: EphA3 antigen (UniProt P29320)
Assay: ELISA

UniProt P29320, sequence (P29320 21-541 limits assumed): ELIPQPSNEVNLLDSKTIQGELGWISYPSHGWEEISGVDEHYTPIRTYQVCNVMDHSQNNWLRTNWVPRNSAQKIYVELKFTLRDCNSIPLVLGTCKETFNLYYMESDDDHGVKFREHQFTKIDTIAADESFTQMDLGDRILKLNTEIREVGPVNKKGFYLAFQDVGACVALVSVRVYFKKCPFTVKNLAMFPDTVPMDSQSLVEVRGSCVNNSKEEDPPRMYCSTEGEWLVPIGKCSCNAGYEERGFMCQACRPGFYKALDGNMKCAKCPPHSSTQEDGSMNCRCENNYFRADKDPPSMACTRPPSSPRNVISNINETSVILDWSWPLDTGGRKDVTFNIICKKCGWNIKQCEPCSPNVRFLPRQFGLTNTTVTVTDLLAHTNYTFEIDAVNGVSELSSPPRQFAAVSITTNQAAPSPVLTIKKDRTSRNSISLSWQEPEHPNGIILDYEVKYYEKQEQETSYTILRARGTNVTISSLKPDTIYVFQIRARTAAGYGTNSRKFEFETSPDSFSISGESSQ

monoclonal antibody IIIA4
AFFINITY: 2.5 nM
